First the molecules themselves.
B1: 6.26.1 (antibody, human IgG4, V domains shown)
VH: QLQLQESGPGLVKPSETLSLTCTVSGGSISRSSYYWGWIRQPPGKGLEWMGNIYYSGSTHYNPSLKSRVTISVDTSKNQFSLKLSSVTAADTAVFYCAKGREYISSSGYGMDVWGQGTTVTVS
VL: SYELTQPPSVSVSPGQTASITCSGDKLGNKYVCWYQQKPGQSPVLVIFQDSRRPSGIPERFSGSNSGNTATLTISGTQAMDEADYYCQAWDTSTVIFGGGTKLTVL
B2: 8.18.1 (antibody, human IgG4, V domains shown)
VH: QVQLQESGPGLVKPSETLSLTCTVSGGSVSSGGYYWSWIRQPPGKGLEWIGYFYYSGSPNYNPSLKRRIAISVDTSKNQFSLRLSSVTAADTAVYYCARDPMHYYGMDVWGQGTTVTVSS
VL: SSELTQPPSVSVFPGQTANITCSGDKLGDKFACWYQQKPGQSPVLVIYRDNKRPSGIPERFSGSNSGNTATLTISGTQAMDEADYYCQAWDSSTYVVFGGGTKLTVL
B3: 5.36.1 (antibody, human IgG4, V domains shown)
VH: QVQLQQSGPGLVKPSQTLSLTCAISGDSVSSNSAAWNWIRQSPSRGLEWLGRTYYRSKWYNDYAVSVKSRITINPDTSKNQFSLQLNSVTPEDTAVYYCAREEQQLVRYYYYYGMDVWGQGTTVTVS
VL: DIVMTQTPLSLSVTPGQPASISCKSSQSLLHSDGRTYLYWYLQRPGQPPQLLIYEASYRFSGVPDRFSGSGSGTDFTLKISRVEAEDVGIYYCMQSIQLPRTFGQGTRLEIK
B4: 9.11.1 (antibody, human IgG4, V domains shown)
VH: QVQLVESGGGVVQPGRSLRLSCAASGFTFSVYGMHWVRQAPGKGLEWVAVIWYDGNNKYYVDSVKGRFTISRDNSKNTLYLQLNSLRAEDTAVYYCARERSSSWYFDYWGQGTLVTVSS
VL: QSALTQPASVSGSSGQSITISCTGTSSDVGSYNLVSWYQQHPGKAPKLMIYEVSKRPSGVSNRFSGSKSGNTASLTISGLQAEDEADYYCCSYAGNSNWVFGGGTKLTVL
B5: 8.50.1 (antibody, human IgG4, V domains shown)
VH: QVQLQESGPGLVKPSETLSLTCTVSGGSISSDYWSWIRQPAGKGLEWIGRFYNSGRTNYRPSLKSRITMSVDTSKNQFSLKLSSVTAADTAVYYCARDMYSGRGNWYFDLWGRGTLVTVS
VL: SYELTQPPSVSVSPGQTARITCSGDALPKKYAYWYQQKSGQAPVLVIYEDSKRPSGIPERFSGSSSGTMATLTISGAQVEDEADYYCYSTDSSDNHRVFGGGTKLTVL
B6: 9.31.1 (antibody, human IgG4, V domains shown)
VH: QVQLVESGGGLVKPGGSLRLSCAASGFTFSDYYMSWIRQAPGKGLEWVSYIRSSGSTIYYADSVKGRFTISRDNAKNSLYLQMNSLRAEDTAVYYCARTPYSGRYHWYFDLWGRGTLVTVS
VL: SYELTQPPSVSVSPGQTARITCSGDALPIKYAYWYQHKSGQAPVLVIYEDSKRPSGIPERFSGSSSGTMATLTISGAQVEDEADYYCYSTDSSGNHRVFGGGTKLTVL
B7: 9.19.1 (antibody, human IgG4, V domains shown)
VH: QVQLVESGGGVVQPGRSLRLSCAASGFTFNNYGMHWVRQAPGKGLECVAVIWYDGGNKYYADSVKGRFAISRDNSKNTLYLQMNSLRAEDTAVYYCTAVTKLNYYYGMDVWGQRTTVTVS
VL: QSALTQPASVSGSPGQSITISCTGTSSDVGGYNYVSWYQQHPGKAPKFMIYEVSNRPSGVSNRFSGSKSGNTASLTISGLQAEDEADYYCSSYTSSSILVFGGGTKLTVL
B8: 9.2.1 (antibody, human IgG4, V domains shown)
VH: QVQLVESGGGVVQPGRSLRLSCAASGFTFNNYGMHWVRQAPGKGLECVAVIWYDGGNKYYADSVKGRFAISRDNSKNTLYLQMNSLRAEDTAVYYCTAVTTLYYYYGMDVWGQGTTVTVS
VL: QSALTQPASVSGSPGQSITISCTGTSSDVGGYNYVSWYQQHPGKAPKLMIYEVSNRPSGVSNRFSGSKSGNTASLTISGLQAEDEADYYCSSYTSSSILVFGGGTKLTVL
B9: 5.5.1 (antibody, IgG4, V domains shown)
VH: QVQLVESGGGVVQPGRSLRLSCAASGFTFSSYGMHWVRQAPGKGLEWVAVIWYDGDNKYYADSVQGRFTISRDNSKNTLYLQMNSLRPEDTAVYYCARERSSSWYFDYWGQGTLVTVSS
VL: QSALTQPASVSGSPGQSITISCTGTSSDVGSYNLVSWYQQHPGKAPKLMIYEVSKRPSGISNRFSGSKSGNTASLTISGLQAEDEADYYCCSYAGSSTWVFGGGTKLTVL
B10: 9.26.1 (antibody, human IgG4, V domains shown)
VH: QVQLVESGGGVVQPGRSLRLSCAASGFTFNNYGMHWVRQAPGKGLECVAVIWYDGGNKYYADSVKGRFAISRDNSKNTLYLQMNSLRAEDTAVYYCTAVTKLNYYYGMDVWGQGTTVTVS
VL: QSALTQPASVSGSPGQSITISCTGTSSDVGGYNYVSWYQQHPGKAPKLMIYEVSNRPSGVSNRFSGSKSGNTASLTISGLQAEDEADYYCSSYTSSSILVFGGGTKLTVL
B11: 4.20.1 (antibody, human IgG4, V domains shown)
VH: QVQLVESGGGVVQPGRSLRLSCAASGFTFSNYGMNWVRQAPGKGLEWVAVIWYDGNNKSEADSVKGRFTISRDNSKNTLYLQMNSLRAEDTAVYYCARDSRSGPFDYWGQGTLVTVSS
VL: EIVLTQSPDFQSVTPKEKVTITCRASQSIGSSLHWYQQKPDQSPKLLIKFASQSFSGVPSRISGSGSGTDFTLTINSLEAEDAATYYCHQSSSLPFTFGPGTKVDIK

Chain of Cynomolgus monkey IL-1β (cynomolgus monkey) (P48090 117-269 limits assumed): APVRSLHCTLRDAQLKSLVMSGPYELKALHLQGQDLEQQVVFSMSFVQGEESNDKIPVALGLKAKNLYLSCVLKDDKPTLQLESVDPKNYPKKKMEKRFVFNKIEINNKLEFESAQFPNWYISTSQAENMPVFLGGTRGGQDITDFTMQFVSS

This test concerns the target Cynomolgus monkey IL-1β (cynomolgus monkey). Briefly: Biacore low-res, mAb captured, cyno IL-1β 117 nM, 25C.
By Kd is commonly meant the constant that tells how readily two partners part at equilibrium. A word on the koff: it is the rate constant with which the complex falls apart. As usually defined, the kon is a measure of how fast the partners come together. Molecule B1 had a Kd of 1.1 nM, an off-rate (koff) of 0.00031 s⁻¹ and a kon of 270000 M⁻¹ s⁻¹.
In the same order, the values of B2 are 0.8 nM, 9.2e-05 s⁻¹ and 110000 M⁻¹ s⁻¹.
For B3, in that order: 3.4 nM, 0.00072 s⁻¹ and 210000 M⁻¹ s⁻¹.
In turn, B4 displayed an equilibrium dissociation constant (Kd) of 0.8 nM, an off-rate constant (koff) of 0.00027 s⁻¹ and a kon of 330000 M⁻¹ s⁻¹.
In turn, B5 returned a dissociation constant (Kd) of 2.5 nM, an off-rate (koff) of 0.0012 s⁻¹ and an on-rate (kon) of 470000 M⁻¹ s⁻¹.
For B6, the Kd came to 5 nM, the koff was 0.0015 s⁻¹ and the kon amounted to 300000 M⁻¹ s⁻¹.
In the same order, the values of B7 are 0.5 nM, 0.00012 s⁻¹ and 260000 M⁻¹ s⁻¹.
In the case of B8, the Kd was determined as 4.5 nM, the koff is 0.0014 s⁻¹ and the on-rate constant (kon) came to 310000 M⁻¹ s⁻¹.
Take B9: the Kd came to 4.6 nM, the koff is 0.0011 s⁻¹ and the kon was found to be 240000 M⁻¹ s⁻¹.
B10 returned a dissociation constant (Kd) of 1.3 nM, a koff of 0.0002 s⁻¹ and a kon of 150000 M⁻¹ s⁻¹.
With B11, the Kd came out at 6.3 nM, the off-rate (koff) amounted to 0.005 s⁻¹ and the on-rate (kon) came out at 800000 M⁻¹ s⁻¹.

The values above are taken from patent US20070065439A1.
